Test results reported in the supplement of paper PMC10724198.
± gives the standard deviation of the averaged measurements.

Experiments:
[1] = system: Saccharomyces cerevisiae; assay: protein stability index of tFT-peptide fusion (C-terminal peptide) (PSI (0-1 scale)); higher = more stable (slower turnover)
Experimental: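 MPS profiling in S. cerevisiae of the tFT-X12 degron library: putative degron peptides plus stable controls, 12 aa, fused to the C-terminus of a sfGFP-mCherry timer. Cells are FACS-sorted into 8 mCherry/sfGFP bins and deep-sequenced. PSI runs from 0 (unstable) to 1 (stable). Backgrounds are wild type, das1Δ and doa10Δ at 30 °C, and wild type, das1Δ, cdc34-1 and cdc53-1 at 37 °C; 2-3 technical replicates each.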

[2] = system: Saccharomyces cerevisiae; assay: as above; conditions: genetic background: wild type; temperature: 30 C
[3] = genetic background: cdc34-1, temperature: 37 C
[4] = genetic background: cdc53-1, temperature: 37 C
[5] = genetic background: das1 deletion, temperature: 30 C
[6] = genetic background: das1 deletion, temperature: 37 C
[7] = genetic background: doa10 deletion, temperature: 30 C
[8] = genetic background: wild type, temperature: 30 C
[9] = genetic background: wild type, temperature: 37 C
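Also: PSI is a weighted mean of sequencing reads over stability bins, variants kept only with over 10 reads, mCherry proximal and sfGFP distal, peptide attached via GGGS linker.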

Sequence	protein stability index [1, 3]	protein stability index [1, 4]	protein stability index [1, 5]	protein stability index [1, 6]	protein stability index [1, 7]	protein stability index [1, 8]	protein stability index [1, 9]	protein stability index [2]
AALFNYVVCFCA	0.474 ± 0.059	0.537 ± 0.035	0.377 ± 0.025	0.512 ± 0.013	0.301 ± 0.0065	0.323 ± 0.015	0.436 ± 0.025	0.358 ± 0.0079
AASRVIYLLNLF	0.653 ± 0.034	0.753 ± 0.008	0.6272 ± 0.0031	0.736 ± 0.027	0.197 ± 0.0028	0.232 ± 0.018	0.473 ± 0.027	0.3446 ± 0.0022
AFRFHTYFLLLC	0.0472 ± 0.006	0.0404 ± 0.0043	0.153 ± 0.04	0.184 ± 0.0066	0.0686 ± 0.021	0.0553 ± 0.012	0.0696 ± 0.038	0.0812 ± 0.019
AGLLVLISWRLF	0.0795 ± 0.014	0.213 ± 0.036	0.171 ± 0.029	0.337 ± 0.0065	0.124 ± 0.013	0.141 ± 0.019	0.223 ± 0.022	0.217 ± 0.036
AKVFGLILVLLT	0.211 ± 0.026	0.349 ± 0.027	0.227 ± 0.023	0.407 ± 0.025	0.201 ± 0.017	0.205 ± 0.024	0.3711 ± 0.0013	0.334 ± 0.022
ALEIIRLSHRLC	0.498 ± 0.048	0.689 ± 0.022	0.618 ± 0.008	0.731 ± 0.009	0.0821 ± 0.0079	0.0791 ± 0.016	0.113 ± 0.0018	0.127 ± 0.011
APEWGGGDEWWG	0.75 ± 0.04	0.802 ± 0.015	0.691 ± 0.014	0.804 ± 0.019	0.697 ± 0.015	0.7 ± 0.0091	0.7984 ± 0.0027	0.767 ± 0.012
APPFPSLSSFAP	0.679 ± 0.039	0.744 ± 0.038	0.7 ± 0.016	0.737 ± 0.03	0.693 ± 0.032	0.706 ± 0.04	0.718 ± 0.026	0.717 ± 0.018
APPPVAPAPGSA	0.65 ± 0.026	0.701 ± 0.015	0.653 ± 0.035	0.7043 ± 0.0061	0.647 ± 0.041	0.675 ± 0.053	0.672 ± 0.051	0.709 ± 0.012
APRPSYSLLALL	0.733 ± 0.034	0.858 ± 0.13	0.711 ± 0.04	0.783 ± 0.026	0.375 ± 0.01	0.41 ± 0.0052	0.616 ± 0.043	0.443 ± 0.025
ASVSVWCVSVVV	0.124 ± 0.017	0.166 ± 0.0023	0.103 ± 0.02	0.1641 ± 0.00088	0.087 ± 0.024	0.109 ± 0.017	0.148 ± 0.011	0.15 ± 0.026
AVLSFVLVRSVV	0.58 ± 0.052	0.619 ± 0.012	0.417 ± 0.026	0.604 ± 0.017	0.399 ± 0.031	0.417 ± 0.021	0.574 ± 0.0062	0.471 ± 0.02
AWVLISNRRRIM	0.62 ± 0.071	0.747 ± 0.011	0.648 ± 0.033	0.745 ± 0.025	0.187 ± 0.0092	0.216 ± 0.029	0.502 ± 0.095	0.262 ± 0.065
AYPAHQLLVSCL	0.509 ± 0.012	0.511 ± 0.021	0.405 ± 0.026	0.5435 ± 0.0014	0.351 ± 0.016	0.384 ± 0.038	0.5 ± 0.024	0.482 ± 0.028
CCGWSGCVSGVL	0.698 ± 0.029	0.7602 ± 0.0038	0.638 ± 0.014	0.7418 ± 0.0014	0.651 ± 0.012	0.657 ± 0.02	0.74 ± 0.024	0.717 ± 0.018
CCMLCVVAWSGV	0.424 ± 0.044	0.517 ± 0.097	0.303 ± 0.027	0.5581 ± 0.0018	0.257 ± 0.0051	0.295 ± 0.056	0.524 ± 0.0054	0.359 ± 0.0042
CCSGWSVRLLCV	0.578 ± 0.066	0.606 ± 0.036	0.494 ± 0.033	0.625 ± 0.025	0.243 ± 0.0063	0.269 ± 0.024	0.375 ± 0.0046	0.37 ± 0.025
CCVLGDRCIGSD	0.699 ± 0.018	0.735 ± 0.011	0.635 ± 0.013	0.76 ± 0.019	0.631 ± 0.013	0.655 ± 0.022	0.718 ± 0.013	0.678 ± 0.057
CFGIFWLFARLK	0.281 ± 0.07	0.32 ± 0.03	0.289 ± 0.022	0.422 ± 0.0073	0.343 ± 0.018	0.274 ± 0.035	0.389 ± 0.035	0.345 ± 0.059
CFVWFSVVLLFA	0.109 ± 0.015	0.159 ± 0.0066	0.134 ± 0.028	0.227 ± 0.0053	0.136 ± 0.0019	0.117 ± 0.016	0.202 ± 0.014	0.194 ± 0.0056

Sequence	protein stability index [1, 3]	protein stability index [1, 4]	protein stability index [1, 5]	protein stability index [1, 6]	protein stability index [1, 7]	protein stability index [1, 8]	protein stability index [1, 9]	protein stability index [2]
CFYSRTIILEHC	0.503 ± 0.1	0.506 ± 0.0072	0.464 ± 0.0086	0.5003 ± 0.0025	0.23 ± 0.015	0.233 ± 0.028	0.34 ± 0.015	0.328 ± 0.015
CGCLPYIGTKLC	0.463 ± 0.076	0.711 ± 0.026	0.647 ± 0.028	0.766 ± 0.013	0.087 ± 0.036	0.117 ± 0.018	0.106 ± 0.012	0.165 ± 0.0027
CHSICLVILEFI	0.183 ± 0.0091	0.338 ± 0.049	0.25 ± 0.05	0.436 ± 0.011	0.183 ± 0.03	0.198 ± 0.028	0.384 ± 0.011	0.274 ± 0.034
CIFLLMAILSLA	0.48 ± 0.055	0.558 ± 0.0093	0.363 ± 0.029	0.534 ± 0.023	0.2341 ± 0.00064	0.27 ± 0.025	0.427 ± 0.0079	0.411 ± 0.075
CIIAVMISIVSF	0.0342 ± 0.0065	0.0959 ± 0.012	0.0327 ± 0.018	0.14 ± 0.035	0.02686 ± 0.00016	0.0274 ± 0.0082	0.0917 ± 0.023	0.0807 ± 0.031
CILVSVDVIVFF	0.0529 ± 0.014	0.147 ± 0.043	0.118 ± 0.051	0.207 ± 0.0033	0.103 ± 0.016	0.136 ± 0.026	0.166 ± 0.036	0.212 ± 0.005
CLAGALSWLRRG	0.704 ± 0.034	0.7646 ± 0.006	0.662 ± 0.015	0.745 ± 0.022	0.637 ± 0.013	0.646 ± 0.019	0.703 ± 0.022	0.732 ± 0.018
CLLLFFIFLLFL	0.484 ± 0.065	0.452 ± 0.0092	0.387 ± 0.036	0.463 ± 0.032	0.49 ± 0.026	0.376 ± 0.024	0.493 ± 0.029	0.41 ± 0.05
CLLLILCFLCVR	0.382 ± 0.0078	0.355 ± 0.017	0.343 ± 0.021	0.4415 ± 0.00095	0.364 ± 0.028	0.321 ± 0.02	0.401 ± 0.016	0.359 ± 0.026
CLRFVFWFVCFV	0.227 ± 0.047	0.238 ± 0.0095	0.254 ± 0.03	0.351 ± 0.0079	0.268 ± 0.0087	0.186 ± 0.01	0.231 ± 0.018	0.27 ± 0.087
CLYATQFWGRYG	0.69 ± 0.062	0.74 ± 0.019	0.629 ± 0.025	0.7737 ± 0.005	0.229 ± 0.0079	0.258 ± 0.033	0.6 ± 0.014	0.434 ± 0.07
CPYSNAFALCVF	0.153 ± 0.023	0.237 ± 0.022	0.22 ± 0.026	0.316 ± 0.0064	0.183 ± 0.0056	0.192 ± 0.019	0.253 ± 0.0037	0.272 ± 0.034
CREFLQSMLFYC	0.688 ± 0.043	0.744 ± 0.017	0.645 ± 0.044	0.751 ± 0.018	0.241 ± 0.016	0.281 ± 0.021	0.56 ± 0.02	0.373 ± 0.1
CSAVYNLHLLYS	0.696 ± 0.022	0.745 ± 0.012	0.626 ± 0.013	0.741 ± 0.011	0.469 ± 0.04	0.48 ± 0.022	0.6452 ± 0.0029	0.519 ± 0.076
CSFPTFRSLLLL	0.532 ± 0.018	0.647 ± 0.014	0.502 ± 0.018	0.671 ± 0.014	0.218 ± 0.0036	0.23 ± 0.021	0.438 ± 0.058	0.3 ± 0.078
CSPSCNIVRLVS	0.527 ± 0.016	0.723 ± 0.025	0.632 ± 0.02	0.712 ± 0.008	0.11 ± 0.018	0.114 ± 0.017	0.198 ± 0.059	0.294 ± 0.022
CTYSLSVLFVFF	0.396 ± 0.014	0.51 ± 0.067	0.3 ± 0.03	0.51 ± 0.056	0.252 ± 0.012	0.307 ± 0.035	0.4462 ± 0.0024	0.382 ± 0.024
CVFFCVLVCFLS	0.342 ± 0.0056	0.382 ± 0.023	0.302 ± 0.048	0.439 ± 0.006	0.317 ± 0.0066	0.3 ± 0.027	0.377 ± 0.0062	0.369 ± 0.036
CVLSWSLFVVVW	0.0234 ± 0.0015	0.028 ± 0.0018	0.0273 ± 0.0091	0.0441 ± 0.011	0.0209 ± 0.0017	0.0168 ± 0.0058	0.0346 ± 0.015	0.044 ± 0.026
